Read-outs that look alike come from different tables or passages of the source.
B1: B11-F06 (VHH)
chain: EVQLQASGGGFVQPGGSLRLSCAASGSTWFREIMGWFRQAPGKEREFVSAISSDPTWHAYYADSVKGRFTISRDNSKNTVYLQMNSLRAEDTATYYCAPLAGTESIHWWDPWHESSYWGQGTQVTVSSGGGSGGGSGGGSGGGSEVQLQASGGGFVQPGGSLRLSCAASGDTWSLEIMGWFRQAPGKEREFVSAISSEDGWHAYYADSVKGRFTISRDNSKNTVYLQMNSLRAEDTATYYCAKIENWIQAVEGEMSDYWGQGTQVTVSSHHHHHH
notes: Bivalent (biparatopic) tandem B11-linker-F06; also called bivalent hybribody B11-F06; bivalent VHH B11F06
B2: F06 (VHH)
VHH: EVQLQASGGGFVQPGGSLRLSCAASGDTWSLEIMGWFRQAPGKEREFVSAISSEDGWHAYYADSVKGRFTISRDNSKNTVYLQMNSLRAEDTATYYCAKIENWIQAVEGEMSDYWGQGTQVTVSS
notes: Monovalent VHH from the synthetic hs2dAb library; His-tagged, detected by anti-cMyc or anti-6xHis; also called VHH F06; single domain antibody F06; not shown: cMyc tag and 6xHis tag (pHEN2 vector)
B3: B11-A08 (VHH)
chain: EVQLQASGGGFVQPGGSLRLSCAASGSTWFREIMGWFRQAPGKEREFVSAISSDPTWHAYYADSVKGRFTISRDNSKNTVYLQMNSLRAEDTATYYCAPLAGTESIHWWDPWHESSYWGQGTQVTVSSGGGSGGGSGGGSGGGSEVQLQASGGGFVQPGGSLRLSCAASGYYSYSSTMGWFRQAPGKEREFVSAISFYSDMAHYYADSVKGRFTISRDNSKNTVYLQMNSLRAEDTATYYCAAFSKLGKIKYWGQGTQVTVSSHHHHHH
notes: Bivalent (biparatopic) tandem B11-linker-A08; also called bivalent hybribody B11-A08; bivalent VHH B11A08
B4: B11-Bv (VHH)
chain: EVQLQASGGGFVQPGGSLRLSCAASGSTWFREIMGWFRQAPGKEREFVSAISSDPTWHAYYADSVKGRFTISRDNSKNTVYLQMNSLRAEDTATYYCAPLAGTESIHWWDPWHESSYWGQGTQVTVSSAAAEVQLQASGGGFVQPGGSLRLSCAASGSTWFREIMGWFRQAPGKEREFVSAISSDPTWHAYYADSVKGRFTISRDNSKNTVYLQMNSLRAEDTATYYCAPLAGTESIHWWDPWHESSYWGQGTQVTVSSHHHHHH
notes: Bivalent (monoparatopic) tandem of two B11 VHHs; also called bivalent hybribody B11-Bv; bivalent VHH B11bv
B5: A08 (VHH)
VHH: EVQLQASGGGFVQPGGSLRLSCAASGYYSYSSTMGWFRQAPGKEREFVSAISFYSDMAHYYADSVKGRFTISRDNSKNTVYLQMNSLRAEDTATYYCAAFSKLGKIKYWGQGTQVTVSS
notes: Monovalent VHH from the synthetic hs2dAb library; His-tagged, detected by anti-cMyc or anti-6xHis; also called VHH A08; single domain antibody A08; not shown: cMyc tag and 6xHis tag (pHEN2 vector)
B6: B11 (VHH)
VHH: EVQLQASGGGFVQPGGSLRLSCAASGSTWFREIMGWFRQAPGKEREFVSAISSDPTWHAYYADSVKGRFTISRDNSKNTVYLQMNSLRAEDTATYYCAPLAGTESIHWWDPWHESSYWGQGTQVTVSS
notes: Monovalent VHH from the synthetic hs2dAb library, made in E. coli WK6, purified by its His tag, detected by anti-cMyc or anti-6xHis; also called VHH B11; BI 1; not shown: cMyc tag and 6xHis tag (pHEN2 vector)

What was measured:
[1] = target: T1, human plasminogen activator inhibitor-1 (human, UniProt P05121 24-402); assay: specificity test of Example 1 (refers to FIG. 2E-G)
T1 construct: also called hPAI-1; human PAI-1
T1 sequence (P05121 24-402 limits assumed): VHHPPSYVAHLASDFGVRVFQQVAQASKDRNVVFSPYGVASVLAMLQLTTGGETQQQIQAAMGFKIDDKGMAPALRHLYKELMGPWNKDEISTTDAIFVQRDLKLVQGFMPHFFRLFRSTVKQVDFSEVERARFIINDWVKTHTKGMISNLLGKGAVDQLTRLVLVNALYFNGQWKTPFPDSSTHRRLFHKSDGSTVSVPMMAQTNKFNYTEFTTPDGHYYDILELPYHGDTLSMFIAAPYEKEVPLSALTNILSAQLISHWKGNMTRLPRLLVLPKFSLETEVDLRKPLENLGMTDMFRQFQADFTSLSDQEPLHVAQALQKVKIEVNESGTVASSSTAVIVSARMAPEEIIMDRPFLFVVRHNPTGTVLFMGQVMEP

human protease nexin-1 [2] = target: T2, human protease nexin-1 (human, UniProt P07093 20-398); assay: inhibition of PN-1 activity (residual thrombin activity, chromogenic substrate)
T2 chain: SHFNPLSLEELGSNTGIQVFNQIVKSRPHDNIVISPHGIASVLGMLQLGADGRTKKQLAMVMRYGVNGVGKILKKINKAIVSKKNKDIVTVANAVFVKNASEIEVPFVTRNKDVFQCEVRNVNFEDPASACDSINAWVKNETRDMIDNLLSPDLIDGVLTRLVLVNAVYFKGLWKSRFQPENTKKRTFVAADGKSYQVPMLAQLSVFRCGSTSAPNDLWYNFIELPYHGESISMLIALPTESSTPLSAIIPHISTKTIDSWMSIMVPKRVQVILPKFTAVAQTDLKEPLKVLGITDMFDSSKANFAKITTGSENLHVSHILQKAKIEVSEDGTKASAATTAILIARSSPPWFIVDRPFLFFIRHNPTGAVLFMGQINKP

murine protease nexin-1 [3] = target: T3, murine protease nexin-1 (murine, UniProt Q07235 20-397); assay: as above
T3 chain: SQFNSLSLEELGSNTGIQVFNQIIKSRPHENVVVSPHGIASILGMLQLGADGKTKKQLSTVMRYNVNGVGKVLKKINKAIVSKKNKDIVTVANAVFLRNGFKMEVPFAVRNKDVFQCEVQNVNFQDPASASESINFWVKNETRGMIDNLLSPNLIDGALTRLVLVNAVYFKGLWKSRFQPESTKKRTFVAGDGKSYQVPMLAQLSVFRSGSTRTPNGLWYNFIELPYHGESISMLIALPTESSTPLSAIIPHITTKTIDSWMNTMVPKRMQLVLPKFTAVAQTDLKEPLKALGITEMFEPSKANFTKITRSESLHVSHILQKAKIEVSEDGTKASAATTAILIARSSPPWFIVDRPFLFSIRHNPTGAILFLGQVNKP

[4] = target: T4, PN-1 released from TRAP-activated platelets (Homo sapiens (Human), UniProt P07093 20-398); assay: cell-based or functional assay
T4 sequence: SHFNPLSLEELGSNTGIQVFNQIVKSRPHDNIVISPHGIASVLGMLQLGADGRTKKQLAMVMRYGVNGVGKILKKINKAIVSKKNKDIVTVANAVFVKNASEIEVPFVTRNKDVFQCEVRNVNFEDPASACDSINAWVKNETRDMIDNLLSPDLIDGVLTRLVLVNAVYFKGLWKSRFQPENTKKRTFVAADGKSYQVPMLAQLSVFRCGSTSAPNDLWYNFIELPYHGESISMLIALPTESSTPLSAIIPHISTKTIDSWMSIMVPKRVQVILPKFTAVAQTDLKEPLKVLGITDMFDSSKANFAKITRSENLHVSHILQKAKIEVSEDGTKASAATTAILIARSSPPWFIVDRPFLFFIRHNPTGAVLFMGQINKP

murine protease nexin-1 [5] = target: T5, murine protease nexin-1 (murine, UniProt Q07235 20-397); assay: cell-based or functional assay
T5 sequence (looked up): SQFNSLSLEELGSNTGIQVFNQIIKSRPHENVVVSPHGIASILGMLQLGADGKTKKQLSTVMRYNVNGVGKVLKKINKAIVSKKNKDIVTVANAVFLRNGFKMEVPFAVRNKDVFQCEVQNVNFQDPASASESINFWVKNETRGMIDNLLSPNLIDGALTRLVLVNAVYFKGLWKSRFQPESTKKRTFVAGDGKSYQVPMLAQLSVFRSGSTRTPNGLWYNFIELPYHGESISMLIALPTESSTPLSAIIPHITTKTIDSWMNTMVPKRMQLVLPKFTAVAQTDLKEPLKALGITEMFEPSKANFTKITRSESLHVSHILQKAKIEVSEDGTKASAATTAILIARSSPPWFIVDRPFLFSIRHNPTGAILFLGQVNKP

human protease nexin-1 [6] = target: T6, human protease nexin-1 (human, UniProt P07093 20-398); assay: cell-based or functional assay
T6 sequence (looked up): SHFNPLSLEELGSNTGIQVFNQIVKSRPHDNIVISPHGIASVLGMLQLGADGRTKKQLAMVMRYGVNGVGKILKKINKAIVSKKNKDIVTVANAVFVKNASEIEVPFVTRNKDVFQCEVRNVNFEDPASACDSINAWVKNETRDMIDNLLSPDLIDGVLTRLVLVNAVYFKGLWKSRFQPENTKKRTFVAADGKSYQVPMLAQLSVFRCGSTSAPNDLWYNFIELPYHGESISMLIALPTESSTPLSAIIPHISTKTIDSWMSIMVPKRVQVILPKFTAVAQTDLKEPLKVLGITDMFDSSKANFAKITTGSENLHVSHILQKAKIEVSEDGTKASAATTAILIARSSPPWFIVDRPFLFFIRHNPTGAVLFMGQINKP

human protease nexin-1 [7] = target: T2, human protease nexin-1; assay: inhibition of PN-1 activity (residual thrombin activity, chromogenic substrate)
murine protease nexin-1 [8] = target: T3, murine protease nexin-1; assay: as above
[9] = target: T7, murine plasminogen activator inhibitor-1 (murine, UniProt P22777 23-402); assay: ELISA, PAI-1 captured on anti-PAI-1 mAb, anti-6xHis detection
T7 construct: also called mPAI-1; murine PAI-1
T7 sequence (looked up): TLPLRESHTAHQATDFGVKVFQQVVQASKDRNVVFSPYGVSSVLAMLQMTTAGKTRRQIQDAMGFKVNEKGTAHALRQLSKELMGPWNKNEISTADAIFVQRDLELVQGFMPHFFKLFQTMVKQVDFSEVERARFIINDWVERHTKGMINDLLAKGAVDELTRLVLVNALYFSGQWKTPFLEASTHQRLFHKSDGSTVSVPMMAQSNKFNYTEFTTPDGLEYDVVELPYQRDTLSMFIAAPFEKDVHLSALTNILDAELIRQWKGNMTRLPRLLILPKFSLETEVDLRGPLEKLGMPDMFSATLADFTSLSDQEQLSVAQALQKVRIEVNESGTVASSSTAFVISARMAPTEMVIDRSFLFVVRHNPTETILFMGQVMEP

[10] = target: T1, human plasminogen activator inhibitor-1; assay: as above
[11] = target: T1, human plasminogen activator inhibitor-1; assay: non-adsorbed phage ELISA, phage on coated hPAI-1, anti-M13 detection

| Binder | binding result [1] | IC50 (human protease nexin-1 [2]) [nM] | IC50 (murine protease nexin-1 [3]) [nM] | thrombin activity restored (supernatant of TRAP-activated platelets, 0.1 nM thrombin, 1 µM bivalent VHH) [4] [%] | IC50 (thrombin activity assay, 10 nM PN-1, 1 nM thrombin) (murine protease nexin-1 [5]) [nM] | modified prothrombin time (PT), murine plasma with 62.5 nM mPN-1 and 288 nM bivalent VHH (murine protease nexin-1 [5]) [s] | IC50 (thrombin activity assay, 10 nM PN-1, 1 nM thrombin) (human protease nexin-1 [6]) [nM] | IC50 (human protease nexin-1 [7]) [nM] | IC50 (murine protease nexin-1 [8]) [nM] | binding result [9] | binding result [10] | recovery of thrombin activity (percentage of thrombin alone; 1 nM thrombin, 10 nM PN-1, 10 µM VHH) (murine protease nexin-1 [5]) [%] | recovery of thrombin activity (percentage of thrombin alone; 1 nM thrombin, 10 nM PN-1, 10 µM VHH) (human protease nexin-1 [6]) [%] | binding result [11] |
| --- | --- | --- | --- | --- | --- | --- | --- | --- | --- | --- | --- | --- | --- | --- |
| B1 | no binding | 68 | 254 | 88 | 414 | 83.3 | 62 | – | – | – | – | – | – | – |
| B2 | – | – | – | – | 560 | – | 290 | 230 | 670 | no binding (tested: 10 µg/mL) | no binding (tested: 10 µg/mL) | 96 | 100 | – |
| B3 | no binding | 139 | 395 | 100 | 524 | 93.2 | 142 | – | – | – | – | – | – | – |
| B4 | no binding | 40 | 509 | 97 | 825 | 83.5 | 41 | – | – | – | – | – | – | – |
| B5 | – | – | – | – | 2880 | – | 960 | 1170 | 3540 | no binding (tested: 10 µg/mL) | – | 94 | 100 | no binding |
| B6 | no binding | – | – | – | 1580 | – | 50 | 60 | 1270 | no binding (tested: 10 µg/mL) | – | 92 | 100 | – |
